Test results published in paper PMC4135234.
Read-outs that look alike come from different tables or passages of the source.

Key:
GST-FLAG-p53 = GST-FLAG-p53 (human, UniProt P04637 1-393); assay: fluorescence polarization
GST-FLAG-MSI2 [1] = molecular target: T1, GST-FLAG-MSI2 (human, UniProt Q96DH6 1-328); assay: competition
GST-FLAG-MSI2 [2] = molecular target: T1, GST-FLAG-MSI2; assay: competition; remark: listed apart in the source
GST-FLAG-MSI1 = GST-FLAG-MSI1 (human, UniProt O43347 1-362); assay: competition
Chain of GST-FLAG-MSI1 (O43347 whole entry): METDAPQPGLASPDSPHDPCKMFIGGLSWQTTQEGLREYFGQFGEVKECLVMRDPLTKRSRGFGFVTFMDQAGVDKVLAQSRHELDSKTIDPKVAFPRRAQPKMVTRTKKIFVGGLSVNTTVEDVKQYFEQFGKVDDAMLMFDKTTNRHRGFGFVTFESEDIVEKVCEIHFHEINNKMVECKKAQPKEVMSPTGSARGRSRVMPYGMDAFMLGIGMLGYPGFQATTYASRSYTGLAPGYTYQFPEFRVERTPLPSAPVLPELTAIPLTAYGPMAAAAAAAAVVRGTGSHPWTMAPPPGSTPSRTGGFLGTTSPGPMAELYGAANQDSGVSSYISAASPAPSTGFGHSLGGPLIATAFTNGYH

GST-FLAG-LIN28A = molecular target: T2, GST-FLAG-LIN28A (human, UniProt Q9H9Z2 1-209); assay: competition
T2 sequence: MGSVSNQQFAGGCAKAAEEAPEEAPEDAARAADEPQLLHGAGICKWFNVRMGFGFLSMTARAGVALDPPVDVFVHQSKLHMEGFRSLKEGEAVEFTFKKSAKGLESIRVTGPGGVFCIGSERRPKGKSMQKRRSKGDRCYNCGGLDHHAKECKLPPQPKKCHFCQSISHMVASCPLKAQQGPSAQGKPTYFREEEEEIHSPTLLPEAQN

T1 sequence (Q96DH6 whole entry): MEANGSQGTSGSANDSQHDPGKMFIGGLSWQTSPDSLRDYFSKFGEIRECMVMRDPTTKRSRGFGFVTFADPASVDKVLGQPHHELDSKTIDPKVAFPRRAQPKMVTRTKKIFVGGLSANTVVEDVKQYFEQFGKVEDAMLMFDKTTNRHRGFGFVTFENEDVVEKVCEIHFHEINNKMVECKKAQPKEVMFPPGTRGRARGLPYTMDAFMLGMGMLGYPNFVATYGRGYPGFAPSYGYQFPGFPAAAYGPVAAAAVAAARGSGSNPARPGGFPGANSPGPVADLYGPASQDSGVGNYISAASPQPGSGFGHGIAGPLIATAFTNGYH
Chain of GST-FLAG-p53 (P04637 whole entry): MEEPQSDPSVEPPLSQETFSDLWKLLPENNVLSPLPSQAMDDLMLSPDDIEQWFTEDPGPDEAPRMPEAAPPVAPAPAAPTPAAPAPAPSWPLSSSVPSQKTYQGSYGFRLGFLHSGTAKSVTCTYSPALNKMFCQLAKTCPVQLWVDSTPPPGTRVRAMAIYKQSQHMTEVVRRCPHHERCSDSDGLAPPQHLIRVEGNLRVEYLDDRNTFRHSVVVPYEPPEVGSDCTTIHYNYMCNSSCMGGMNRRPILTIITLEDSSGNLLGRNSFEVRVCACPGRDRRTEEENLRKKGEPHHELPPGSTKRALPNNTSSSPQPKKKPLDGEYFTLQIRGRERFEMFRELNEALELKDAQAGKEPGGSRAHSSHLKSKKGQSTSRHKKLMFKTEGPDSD

GUAGUAGU (ssRNA, 5' C9 spacer) [MSI FP oligo (Cy3-C9-Oligo #5)]
binding result (GST-FLAG-p53): no binding

GUAGUAGU (ssRNA) [MSI Oligo #5 (unlabeled MSI FP oligo)]
IC50 (GST-FLAG-MSI2 [1]): 1300 ± 200 nM
IC50 (GST-FLAG-MSI2 [2]): 4.6 µM
IC50 (GST-FLAG-MSI1): 5.6 µM
IC50 (GST-FLAG-LIN28A): 500 nM
